B1: GAS2-GAR domain (residues 198-314) (domain or fragment)
chain: STGNLLDDAVKRISEDPPCKCPTKFCVERLSQGRYRVGEKILFIRMLHNKHVMVRVGGGWETFAGYLLKHDPCRMLQISRVDGKTSPVQSKSPTLKDMNPDNYLVVSATYKAKKEIK

As usually defined, the Kd is the equilibrium constant for the complex coming apart. Read a low Kd as tighter binding. Broadly, the stoichiometry N is the number of molecules, sites or subunits per partner or assembly.

The first data set has as its target microtubules (polymerized porcine brain tubulin) (porcine) (UniProt Q2XVP4). As to the kind of experiment: co-sedimentation.
For “GAS2-GAR K266E (from UniProt P11862 198-314) (domain or fragment)”, the Kd was 10.6 µM. This counts as double-digit micromolar.
“GAS2-GAR R242E (from UniProt P11862 198-314) (domain or fragment)” had a Kd of 5 µM.
“GAS2-GAR R252E (from UniProt P11862 198-314) (domain or fragment)” showed a Kd of 47 µM.
Turning to “GAS2-GAR W257E (from UniProt P11862 198-314) (domain or fragment)”, the Kd was 27 µM. Against the preceding molecule, the Kd is about 1.7-fold lower.
Turning to “GAS2-GAR G255E (from UniProt P11862 198-314) (domain or fragment)”, the Kd was determined as 9.6 µM.
Molecule “GAS2-GAR G255A (from UniProt P11862 198-314) (domain or fragment)” gave a Kd of 2.69 µM.
Same read-out and setting: then B1, with 0.69 µM.

The next data set concerns the molecule itself. The experiment in a line: SEC.
As to B1, the “stoichiometry N” value turned out to be 2.

These data come from publication doi:10.1101/2024.08.19.608523 (bioRxiv, 2024).
